Measured values reported in patent US8962697B2, “Bioreponsive polymers” (Interface Biologics Inc., priority 2006, dated 2015).

Legend:
[1] = molecular target: T1, MMP-9 (Homo sapiens, UniProt P14780); test: MMP-9 bioresponsive degradation assay; type: biochemical; settings: 100 nM MMP-9, 1 mM substrate, room temperature, 3 hr
T1 construct: purchased Chemicon, Temecula, Calif
Description: The hydrolysis of the substrates were done in MMPs activation buffer. […] 100 nM MPP-9 was added in this activating buffer and incubated at 37° C. for 4 hr. to activate enzyme. After activating, the 1 mM substrates were added to be hydrolysis at room temperature for 3 hr.

[2] = molecular target: aureolysin (Staphylococcus aureus, UniProt P81177); settings: 100 nM aureolysin, 1 mM substrate, 37° C., 3 hr
Chain of aureolysin (P81177 209-509): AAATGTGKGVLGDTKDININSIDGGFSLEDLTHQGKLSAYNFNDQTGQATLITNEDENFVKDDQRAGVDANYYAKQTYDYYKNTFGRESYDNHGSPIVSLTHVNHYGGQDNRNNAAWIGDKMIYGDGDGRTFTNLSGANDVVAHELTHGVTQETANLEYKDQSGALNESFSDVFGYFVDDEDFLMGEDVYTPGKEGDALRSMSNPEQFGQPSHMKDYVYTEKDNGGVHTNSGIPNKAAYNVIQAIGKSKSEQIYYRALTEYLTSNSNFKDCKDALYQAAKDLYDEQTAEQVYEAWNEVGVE
Description: The hydrolysis of the substrate was performed in aureolysin activation buffer. The buffer contains 100 mM Tris-HCL, 1 mM CaCL2, pH 7.8, and 1 mM 3,4-dichloroisoumarine. 100 nM aureolysin and 1 mM substrate were added in the buffer, and then incubated at 37° C. for 3 hr.
(§1) All control degradation profiles was conducted as outlined in EXAMPLE 22 through EXAMPLE 26 utilizing the control peptides […] and PRRICV, identified as LAR-7047 and LAR-7048 respectively, as substrates.

[3] = molecular target: V8 proteinase (Staphylococcus aureus, UniProt P0C1U8); settings: 100 nM V8 proteinase, 1 mM substrate, 37° C., 3 hr
Chain of V8 proteinase (P0C1U8 69-336): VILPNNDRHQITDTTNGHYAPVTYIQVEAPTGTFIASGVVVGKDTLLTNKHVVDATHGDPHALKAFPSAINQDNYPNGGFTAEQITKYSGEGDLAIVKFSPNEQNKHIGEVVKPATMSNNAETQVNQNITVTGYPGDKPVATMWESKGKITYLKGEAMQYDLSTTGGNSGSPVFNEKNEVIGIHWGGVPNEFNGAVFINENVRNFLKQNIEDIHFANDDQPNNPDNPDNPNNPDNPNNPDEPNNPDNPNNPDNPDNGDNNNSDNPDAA
Description: The hydrolysis of the substrate was performed in V8 proteinase activation buffer. The buffer contains 100 mM Tris-HCL, 1 mM CaCl2, pH 7.8, and 10 mM o-phenanthroline. 100 nM V8 proteinase and 1 mM substrate were added in the buffer, and then incubated at 37° C. for 3 hr.
as §1

T1 sequence (P14780 107-707 limits assumed): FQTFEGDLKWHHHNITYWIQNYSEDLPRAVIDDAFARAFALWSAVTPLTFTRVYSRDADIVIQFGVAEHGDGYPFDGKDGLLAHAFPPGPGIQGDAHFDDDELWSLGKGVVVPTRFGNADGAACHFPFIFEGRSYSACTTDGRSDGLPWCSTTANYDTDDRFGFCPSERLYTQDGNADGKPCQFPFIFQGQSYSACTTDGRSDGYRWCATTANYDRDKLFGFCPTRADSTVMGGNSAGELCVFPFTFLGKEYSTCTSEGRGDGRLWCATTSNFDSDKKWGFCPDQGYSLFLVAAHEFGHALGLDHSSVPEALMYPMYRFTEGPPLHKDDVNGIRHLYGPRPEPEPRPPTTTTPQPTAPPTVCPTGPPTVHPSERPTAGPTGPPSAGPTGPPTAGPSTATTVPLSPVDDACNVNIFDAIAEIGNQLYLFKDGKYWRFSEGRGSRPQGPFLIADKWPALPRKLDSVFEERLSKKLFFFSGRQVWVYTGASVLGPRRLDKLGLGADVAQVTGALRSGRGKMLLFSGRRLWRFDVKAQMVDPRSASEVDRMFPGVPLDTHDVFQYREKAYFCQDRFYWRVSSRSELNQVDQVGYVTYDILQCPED

Substance	Degradation of peptide substrate by MMP-9 (fragment observed) [1]	Degradation of peptide substrate by aureolysin [2]	Degradation of peptide substrate by V8 proteinase [3]
Pro-arg-arg-ile-sys-val (PRRICV) [LAR-7048]	No degradation	No degradation	No degradation
val-phe-phe-arg-arg-gln-thr-ala (VFFRRQTA) [LAR-7047]	No degradation	No degradation	No degradation
Pro-arg-arg-arg-arg-pro-arg-gln-ile-thr-ala (PRRRRPRQITA) [LAR-7009, peptide targeted to MMP-9 (inflammation)]	produced specific fragment pick: 1121.66 corresponding to PRRRRPRQ sequence	–	–
